This is an account of results in US20260265373A1.

The target of test [1] is full-length human ILT7 on cells (human) (UniProt P59901). The experiment in a line: competitive FACS on CHOK1 cells expressing human ILT7; competitor Tab1-Alexa488; negative control, reference of the calculation.
For test [2] the target is unchanged. The experiment in a line: flow cytometry of human PBMCs, gate on pDCs (CD11c low, HLA-DR+, CD123+).
For test [3] the target is unchanged. The experiment in a line: competitive FACS on CHOK1 cells expressing human ILT7; competitor Tab1-Alexa488; negative control that sets the reference signal.

Chain of full-length human ILT7 on cells (human) (P59901 other isoform, or with tags, fused parts or gaps): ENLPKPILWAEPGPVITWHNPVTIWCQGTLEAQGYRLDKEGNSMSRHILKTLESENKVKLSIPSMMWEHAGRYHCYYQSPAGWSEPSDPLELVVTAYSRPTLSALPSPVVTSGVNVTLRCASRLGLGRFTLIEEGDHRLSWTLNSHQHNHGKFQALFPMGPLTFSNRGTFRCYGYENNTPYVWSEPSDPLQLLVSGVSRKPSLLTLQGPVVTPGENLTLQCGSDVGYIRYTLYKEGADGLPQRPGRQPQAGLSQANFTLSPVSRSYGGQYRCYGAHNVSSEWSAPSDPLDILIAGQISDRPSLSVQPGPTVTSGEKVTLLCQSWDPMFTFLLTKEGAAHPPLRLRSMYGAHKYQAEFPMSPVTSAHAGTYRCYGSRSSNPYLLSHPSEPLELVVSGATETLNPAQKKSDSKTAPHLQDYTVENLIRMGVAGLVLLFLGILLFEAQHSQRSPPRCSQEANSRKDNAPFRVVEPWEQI

As to “isotype antibody hIgG1 (negative control)”, the Inhibition (%) in test [1] was 0%. In test [2], this substance gave a % targeted cells in subpopulation (pDC) of 2.2%. In test [3], the MFI of Tab1-Alexa488 came to 9670.
